Biological target: GST-PITX2A-FL (full length) (UniProt Q99697-3 1-271)
Assay: cell-based or functional assay

B1: Dact2, purified bacterially expressed protein (natural protein, mouse, UniProt Q7TN08 1-757, looked up)
chain: MWAPSGQGPAGWDRRRVGARLRAALAGLQELQGLRATQQARVRGALGLHPAPGPRGQELRLEAALTALREQLSRLRRQDAGLKTHLDQLDQQISELQLDVSRSSCEALDSDSRPSSGFYELSDAGSCSLSTSCASVCSDRLSPSLGSWLPVFQPSKSRSGIGDWRPRSADETTVPAWSPQLTEDSRLLHGAEGTGRLTGMFRPRPVSTGDLERVLPADVGLQRAGTDAAHLLGQGIEIPAHALDPTYQRDLVARGGQEVYPYPSPLHAVALQSPLFALPKEAPCFDICSPPQEPPLVPVDENRTQPEPIRELGSAEAYIHRLLHLRGQELPLRDVGQEQGGDTAAFPPKPCGQRSESTCQLEKQACGADRGGLKLGRGAAKDSLKQHGPVSLVGAEPLSSPLKEETIPWNPCVHGDNTVGSSPCSQAQQPLNDCGQGPVLSPSRVLGTESPPLAPEPFAYTSCTTGETSPVKLRMGFSQNKAVKVRRRVSEKVPRLGKQLPPQPERQRVTERDPSRPHQGGLSRRPTLAREPPGRSCSESTLYPVPFLVPVVVAQRESYPTSPQAFFPMEAALLSSAARRKQRRWQSTMEISAKAGSVSQPGPSMGLPRSPAKRGSGPRAQSRPTLARQDACARCESDPSEHSADCTSLYHSTIAETSEDEEASDHTANRFGDESSSNDSEGCFRGSRRRLAIGSAEAGQGGWAWPRVPPQQPSRAPGNTRPPLPPVPKLCRIKASKALKKKIRRFQPAALKVMTMV
With B1 the “luciferase reporter driven by the Amelx 2.2 kb promoter in cells co-transfected with PITX2A and Dact2: fold activation by PITX2A with Dact2 (∼22-fold without Dact2)” value was 14 fold activation.
